Source: PMC5057102, “Fabrication of an antibody-aptamer sandwich assay for electrochemical evaluation of levels of β-amyloid oligomers”

Legend:
[1] = target: Amyloid beta 1-42 oligomers (UniProt P05067 672-713); assay: electrochemical antibody-aptamer sandwich (DPV); 20 nM, antibody capture; 0.1 M phosphate buffer (Na2HPO4/NaH2PO4) pH 7.4; incubations at 37 C (Abeta 60 min, aptamer-Au-Th 3 h); 1% BSA block; details: label: gold nanoparticle, thionine
[2] = target: Amyloid beta 1-40 oligomers (UniProt P05067 672-711); assay: electrochemical antibody-aptamer sandwich (DPV); 20 nM, antibody capture; response similar to 1-42 oligomers; 0.1 M phosphate buffer (Na2HPO4/NaH2PO4) pH 7.4; incubations at 37 C (Abeta 60 min, aptamer-Au-Th 3 h); 1% BSA block; details: label: gold nanoparticle, thionine
Sequence of Amyloid beta 1-40 oligomers (P05067 672-711): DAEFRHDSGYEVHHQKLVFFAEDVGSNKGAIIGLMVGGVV

Sequence of Amyloid beta 1-42 oligomers (P05067 672-713): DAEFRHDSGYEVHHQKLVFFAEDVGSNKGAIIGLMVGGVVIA

B1: Abeta oligomer aptamer (thiolated, on AuNP with thionine) (ssDNA)
DNA: GCCTGTGTTGGGGCGGGTGCG
modifications: 5'-HS (thiol)
B1: binds [1]; binds [2].
